# According to paper PMC4569848 (Nature Communications, 2015):
# Positions count from the first letter of the chain named. In names and notes the source's numbering stands.
# T1: GST-clathrin 1–494 (human, UniProt Q00610 1-494)
# T1 construct: clathrin, human, residues 1-494, in pGEX-6P1; source: E. coli BL21, purified (glutathione-Sepharose 4B, eluted with GSH); not shown: GST, N-terminal, kept
# T1 sequence (looked up): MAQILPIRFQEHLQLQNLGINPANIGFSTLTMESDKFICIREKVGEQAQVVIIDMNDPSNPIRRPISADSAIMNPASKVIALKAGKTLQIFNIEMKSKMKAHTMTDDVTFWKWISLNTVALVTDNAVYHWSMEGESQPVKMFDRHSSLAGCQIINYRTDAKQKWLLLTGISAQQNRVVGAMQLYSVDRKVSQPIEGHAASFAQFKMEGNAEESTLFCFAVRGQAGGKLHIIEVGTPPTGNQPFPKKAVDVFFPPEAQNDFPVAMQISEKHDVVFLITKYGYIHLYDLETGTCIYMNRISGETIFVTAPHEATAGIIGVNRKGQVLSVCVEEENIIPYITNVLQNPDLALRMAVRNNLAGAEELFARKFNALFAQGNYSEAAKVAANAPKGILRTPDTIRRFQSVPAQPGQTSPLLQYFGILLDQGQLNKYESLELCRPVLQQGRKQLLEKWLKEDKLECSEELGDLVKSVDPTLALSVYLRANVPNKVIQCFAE
# B1: β-arrestin-1 wild type (natural protein, bovine, UniProt P17870 1-418, looked up)
# chain: MGDKGTRVFKKASPNGKLTVYLGKRDFVDHIDLVEPVDGVVLVDPEYLKERRVYVTLTCAFRYGREDLDVLGLTFRKDLFVANVQSFPPAPEDKKPLTRLQERLIKKLGEHAYPFTFEIPPNLPCSVTLQPGPEDTGKACGVDYEVKAFCAENLEEKIHKRNSVRLVIRKVQYAPERPGPQPTAETTRQFLMSDKPLHLEASLDKEIYYHGEPISVNVHVTNNTNKTVKKIKISVRQYADICLFNTAQYKCPVAMEEADDTVAPSSTFCKVYTLTPFLANNREKRGLALDGKLKHEDTNLASSTLLREGANREILGIIVSYKVKVKLVVSRGGLLGDLASSDVAVELPFTLMHPKPKEEPPHREVPEHETPVDTNLIELDTNDDDIVFEDFARQRLKGMKDDKEEEEDGTGSPRLNDR
# notes: β-arrestin-1, bovine, full-length wild-type cDNA in pET22b; also called β-arrestin-1-WT; WT; source: E. coli BL21, purified (Ni-NTA, Superdex 200)
# B2: β-arrestin-1 (bovine, full-length wild type, C-terminal His tag) (natural protein, UniProt P17870 1-418, looked up)
# chain: B1 chain
# notes: β-arrestin-1, bovine, full-length wild-type cDNA in pET22b; also called native β-arrestin-1; wild-type β-arrestin-1; source: E. coli BL21, purified (Ni-NTA, Superdex 200)
# B3: β-arrestin-1-V8-F2Y (natural protein, bovine, UniProt P17870 1-418, looked up)
# chain: B1 chain with V8Y
# modifications: 3,5-difluorotyrosine (F2Y) at 8
# notes: β-arrestin-1, bovine, full-length cDNA in pET22b, amber codon at V8 read as F2Y; source: E. coli BL21 (DE3) with pEVOL-F2YRS and F2Y in the medium, purified (Ni-NTA, gel filtration)
# How the values were obtained:
# Settings in all cases: both partners purified
# GST-clathrin 1–494 [1] = target: T1, GST-clathrin 1–494; assay: pull-down; GST-clathrin pull-down of β-arrestin-1 with V2Rpp at protein:V2Rpp ratios 1:0, 1:0.03, 1:0.3, 1:3 and 1:9; western blot for β-arrestin-1, densitometry
# [2] = target: T2, GST-SRC3D (SRC-SH2-SH3-kinase-three domain) (chicken, UniProt P00523 87-531); assay: pull-down; GST pull-down; 300 nM β-arrestin-1 first mixed with phosphopeptide (equal concentration) 30 min at room temperature in 20 mM Tris-HCl pH 8.0, 150 mM NaCl, 2 mM EDTA, 1 mM DTT; then 10 μM GST-clathrin or GST-SRC 1 h; GST beads 2 h at 4 °C; blot with a β-arrestin-1 antibody
# T2 construct: c-SRC, chicken, residues 87-531, containing SH3, SH2 and catalytic domains; source: E. coli BL21, purified (glutathione-Sepharose 4B, eluted with GSH); not shown: GST, N-terminal, kept
# GST-clathrin 1–494 [3] = target: T1, GST-clathrin 1–494; assay: pull-down; β-arrestin-1-F2Y mutants (300 nM) incubated with equal concentrations of GST-clathrin and V2R-phospho-peptide (V2Rpp), or without peptide; pulled down with GST beads; bound β-arrestin-1 detected by western blot with a β-arrestin-1 antibody
binder,measurement,setting,value
B1,binding result,GST-clathrin 1–494 [1],binds
B2,binding result,[2],binds
B3,binding result,GST-clathrin 1–494 [3],binds
